Assay results as given in patent US20070098681A1.
Several values for one entry are separate records, joined by “and”; a condition that tells them apart may be missing. Identical values can stand only once.

How the values were obtained:
DR5-IgG (human) [1] = assay: phage bound and eluted from DR5-IgG coated well against blank well; phage grown at 37 C
DR5-IgG (human) [2] = assay: method not stated; against zinc-bound Apo-2L

Substance	Enrichment (ratio (DR5-IgG well / blank well)) (DR5-IgG (human) [1])	fold decrease in DR5 affinity (DR5-IgG (human) [2]) [fold]
wild-type Apo2L/TRAIL (residues 96-281) displayed on M13 phage (ligand)	1.5 and 3.3	
Apo-2L after removal of the bound metal by dialysis against chelating agents (ligand)		7
